The supplement of paper PMC7125110
± gives the standard error. For some assays here: Fewer inactive variants are shown than the library holds.

B1: glmS ribozyme (parent)
chain: AUAAAAGCGCCAGAACUACAGAAAUGUAGUUGACGAGGAGGAGGUUUAUCGAAUUUUCGGCGGAUGCCUCCAAA

Legend:
Conditions in all cases: with glucosamine-6-phosphate
glucosamine-6-phosphate [1] = variants of: B1; assay: kcat; higher = faster cleavage; RNA array
In short: (§1)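 kcat and KM were obtained from weighted Michaelis–Menten fits across concentrations of kobs values. Those came from one- or two-exponential decay fits to per-tile medians normalised to baseline and to non-cleaving reference variants. The variants were barcoded ribozymes transcribed in situ by E. coli RNA polymerase on sequenced MiSeq chips and tracked through a hybridised Cy3 probe at 37 °C, with 40 μM to 10 mM glucosamine-6-phosphate in HEPES/KCl/Mg(OAc)2 buffer flowed in.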

glucosamine-6-phosphate [2] = variants of: B1; assay: KM; higher = weaker cofactor use; RNA array
In short: as §1

glucosamine-6-phosphate [3] = variants of: B1; assay: self-cleavage kobs at 160 uM GlcN6P; higher = faster cleavage; RNA array
In short: as §1

glucosamine-6-phosphate [4] = variants of: B1; assay: self-cleavage kobs at 640 uM GlcN6P; higher = faster cleavage; RNA array
In short: as §1

glucosamine-6-phosphate [5] = variants of: B1; assay: self-cleavage kobs at 2500 uM GlcN6P; higher = faster cleavage; RNA array
In short: as §1

glucosamine-6-phosphate [6] = variants of: B1; assay: self-cleavage kobs at 10000 uM GlcN6P; higher = faster cleavage; RNA array
In short: as §1

glucosamine-6-phosphate [7] = variants of: B1; assay: self-cleavage kobs at 40 uM GlcN6P; higher = faster cleavage; RNA array
In short: as §1

Variant	kcat (glucosamine-6-phosphate [1])	KM (glucosamine-6-phosphate [2])	self-cleavage kobs at 160 uM GlcN6P (glucosamine-6-phosphate [3])	self-cleavage kobs at 640 uM GlcN6P (glucosamine-6-phosphate [4])	self-cleavage kobs at 2500 uM GlcN6P (glucosamine-6-phosphate [5])	self-cleavage kobs at 10000 uM GlcN6P (glucosamine-6-phosphate [6])	self-cleavage kobs at 40 uM GlcN6P (glucosamine-6-phosphate [7])
AUAAAAGCGCCAGAACUACAGAAAUGUAGCUAACGAGGAGGAGGUUUAUCGAAUUUUCGGCGGAUGCCUCCAAA [U30C G32A]	0.00241 ± 0.00034 s⁻¹	3840 ± 740 µM	0.000106 ± 1.2e-05 s⁻¹	0.000321 ± 4.3e-05 s⁻¹	0.000932 ± 8.8e-05 s⁻¹	0.00181 ± 0.00026 s⁻¹	–
AUAAAAGCGCCAGAACUACAGAAAUGUAGCUGACGAGGAGGAGGUUUAUCGAAUUUUCGGCGGAUGCCUCAAAA [U30C C71A]	9.39e-05 ± 4.7e-06 s⁻¹	1300 ± 180 µM	–	3.17e-05 ± 8.4e-06 s⁻¹	6.1e-05 ± 9.3e-06 s⁻¹	8.36e-05 ± 1.3e-05 s⁻¹	–
AUAAAAGCGCCAGAACUACAGAAAUGUAGCUGACGAGGAGGAGGUUUAUCGAAUUUUCGGCGGAUGUCUCCAAA [U30C C67U]	0.0001 ± 1.3e-05 s⁻¹	927 ± 390 µM	3.33e-05 ± 1.3e-05 s⁻¹	3.56e-05 ± 7.9e-06 s⁻¹	8.48e-05 ± 1.8e-05 s⁻¹	9.05e-05 ± 1e-05 s⁻¹	–
AUAAAAGCGCCAGAACUACAGAAAUGUAGCUGACGAGGAGGAGGUUUAUCGAAUUUUCGGCGGAUGCCUGCAAA [U30C C70G]	5.67e-05 ± 5.3e-06 s⁻¹	–	5.73e-05 ± 1.4e-05 s⁻¹	6.49e-05 ± 1.1e-05 s⁻¹	4.88e-05 ± 9e-06 s⁻¹	5.52e-05 ± 1e-05 s⁻¹	–
AUAAAAGCGCCAGAACUACAGAAAUGUAGCUGACGAGGAGGAGGUUUAUCGAAUUUUCGGCGGAUGCCUUCAAA [U30C C70U]	0.000529 ± 0.00014 s⁻¹	1890 ± 790 µM	6.03e-05 ± 7.8e-06 s⁻¹	0.000125 ± 1e-05 s⁻¹	0.000261 ± 2.9e-05 s⁻¹	0.000536 ± 5.9e-05 s⁻¹	–
AUAAAAGCGCCAGAACUACAGAAAUGUAGCUGACGAGGAGGAGGUCUAUUGAAUUUUCGGCGGAUGCCCCCAAA [U30C U46C C50U U69C]	1.66e-05 ± 5e-06 s⁻¹	–	–	–	–	–	–
AUAAAAGCGCCAGAACUACAGAAAUGUAGCUGACGAGGAGGAGGUUUAUCGAAUUGUCGGCGGAUGCCUCCAAA [U30C U56G]	0.000308 ± 7.9e-05 s⁻¹	–	–	8.86e-05 ± 1.3e-05 s⁻¹	0.000135 ± 1.8e-05 s⁻¹	0.000296 ± 3.5e-05 s⁻¹	–
AUAAAAGCGCCAGAACUACAGAAAUGUAGCUGACGAGGAGGAGGUUUAUCGAAUUUUCGGCGGAUGCUUCCAAA [U30C C68U]	0.000128 ± 8.6e-06 s⁻¹	1210 ± 270 µM	–	4.07e-05 ± 6.8e-06 s⁻¹	9.82e-05 ± 1.1e-05 s⁻¹	0.000111 ± 8.5e-06 s⁻¹	–
AUAAAAGCGCCAGAACUACAGAAAUGUAGCUGACGAGGAGGAGGUUUAUCGAAUUUUCGGCGGAUGCAUCCAAA [U30C C68A]	3.05e-05 ± 8e-06 s⁻¹	–	–	–	3.62e-05 ± 1.1e-05 s⁻¹	–	–
AUAAAAGCGCCAGAACUACAGAAAUGUAGCUGACGAGGAGGAGGUUUAUCGAAUUUUCGGCGGAUGCCCCCAAA [U30C U69C]	0.00014 ± 1.4e-05 s⁻¹	591 ± 210 µM	3.85e-05 ± 1.7e-05 s⁻¹	6.58e-05 ± 1e-05 s⁻¹	0.000129 ± 1.3e-05 s⁻¹	0.000122 ± 1.4e-05 s⁻¹	–
AUAAAAGCGCCAGAACUACAGAAAUGUAGCUGACGAGGAGAAGGUUUAUCGAAUUUUCGGCGGAUGCCUCCAAA [U30C G41A]	1.28e-05 ± 1.8e-06 s⁻¹	–	–	< 1e-05 s⁻¹	–	–	–
AUAAAAGCGCCAGAACUACAGAAAUGUAGCUGACGAGGAGGAGGUUUAUCGAAGUUUCGGCGGAUGCCUCCAAA [U30C U54G]	0.000209 ± 1.3e-05 s⁻¹	411 ± 120 µM	9.02e-05 ± 4.2e-05 s⁻¹	0.000118 ± 2.8e-05 s⁻¹	0.00018 ± 3.5e-05 s⁻¹	0.000203 ± 2.5e-05 s⁻¹	–
AUAAAAGCGCCAGAACUACAGAAAUGUAGGUGACGAGGUGGAGGUUUAUCGAAUUUUCGGCGGAUGCCUCCAAA [U30G A39U]	0.00794 ± 0.0035 s⁻¹	–	0.000455 ± 8.4e-05 s⁻¹	0.000857 ± 0.00016 s⁻¹	0.00224 ± 0.00096 s⁻¹	0.00645 ± 0.00095 s⁻¹	0.000127 ± 2.3e-05 s⁻¹
AUAAAAGCGCCAGAACUACAGAAAUGUAGGUGACGAGGAGGAGGUUUAUCGAAUUUUCGGCGGAUGCCUCCAAA [U30G]	0.0156 ± 0.0046 s⁻¹	2400 ± 840 µM	0.000809 ± 3e-05 s⁻¹	0.00344 ± 0.00013 s⁻¹	0.00622 ± 0.00028 s⁻¹	0.0157 ± 0.00058 s⁻¹	0.000284 ± 5.6e-06 s⁻¹
AUAAAAGCGCCAGAACUACAGAAAUGUAGGUGACGGGGAGGAGGUUUAUCGAAUUUUCGGCGGAUGCCUCGAAA [U30G A36G C71G]	1.69e-05 ± 3.9e-06 s⁻¹	–	–	–	< 1e-05 s⁻¹	< 1e-05 s⁻¹	< 1e-05 s⁻¹
AUAAAAGCGCCAGAACUACAGAAAUGUAGCUGACGAAGAGGAGGUUUAUCGAAUUUUCGGCGGAUGCCUCCAAA [U30C G37A]	2.63e-05 ± 1.2e-06 s⁻¹	710 ± 290 µM	–	–	–	2.44e-05 ± 9e-06 s⁻¹	–
